# EP4671273A1 (Anaveon AG, dated 2025)
# Target: T1, Recombinant hIL-21-Fc (AcroBiosystems) (human, UniProt Q9HBE4 30-162)
# T1 construct: bought; also called rhIL-21; not shown: Fc of the bought reagent, not described
# Experiment: SPR, Fab on captured rhIL-21-Fc
# T1 sequence (Q9HBE4 30-162): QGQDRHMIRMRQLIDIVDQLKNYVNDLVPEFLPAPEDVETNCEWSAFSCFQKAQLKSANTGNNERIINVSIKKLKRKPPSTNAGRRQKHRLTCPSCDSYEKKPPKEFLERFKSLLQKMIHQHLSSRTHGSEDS
Kd,koff,kon,Binder
1.01 nM,0.000263 s⁻¹,260000 M⁻¹ s⁻¹,"ZAP122m14 Fab (Fab, V domains shown, Fab) VH: QVQLQESGPGLVKPSETLSLTCTVSGGSISSDFWSWIRQPPGKGLEWIGYISSRGSTNYNPSLKRRVTISVDTSRNQFSLKLSSVTAADTAVYYCARSAGVTDFDFWGQGTLVTVSS VL: DIQMTQSPSSVSASVGDRVTITCRASQGISSWLAWYQHKPGKAPKLLIYVASSLQSGVPSRFSGSGSGTDFTLTISSLQPEDFATYYCQQANSFPLTFGGGTKVEIK"
< 0.0174 nM,< 1e-05 s⁻¹,574000 M⁻¹ s⁻¹,"ZAP122m15 Fab (Fab, V domains shown, Fab) VH: QVQLQESGPGLVKPSETLSLTCTVSGGSISSDFWGWIRQPPGKGLEWIGYIYSRGSTNYNPSLKRRVTISVDTSRNQFSLKLSSVTAADTAVYYCARSAGVTDFDFWGQGTLVTVSS VL: DIQMTQSPSSVSASVGDRVTITCRASQGISSWLAWYQHKPGKAPKLLIYVASSLQSGVPSRFSGSGSGTDFTLTISSLQPEDFATYYCQQANSFPLTFGGGTKVEIK"
6.08 nM,0.000775 s⁻¹,127000 M⁻¹ s⁻¹,"ZAP122m19 Fab (Fab, V domains shown, Fab) VH: QVQLQESGPGLVKPSETLSLTCTVSGGSISSDFWGWIRQPPGKGLEWIGYISSRGSTNYNPSLKRRVTISVDTSRNQFSLKLSSVTAADTAVYYCAASAGVTDFDFWGQGTLVTVSS VL: DIQMTQSPSSVSASVGDRVTITCRASQGISSWLAWYQHKPGKAPKLLIYVASSLQSGVPSRFSGSGSGTDFTLTISSLQPEDFATYYCQQANSFPLTFGGGTKVEIK"
0.0435 nM,1.94e-05 s⁻¹,446000 M⁻¹ s⁻¹,"ZAP122m20 Fab (Fab, V domains shown, Fab) VH: QVQLQESGPGLVKPSETLSLTCTVSGGSISSDFWGWIRQPPGKGLEWIGYISSRGSTNYNPSLKRRVTISVDTSRNQFSLKLSSVTAADTAVYYCARAAGVTDFDFWGQGTLVTVSS VL: DIQMTQSPSSVSASVGDRVTITCRASQGISSWLAWYQHKPGKAPKLLIYVASSLQSGVPSRFSGSGSGTDFTLTISSLQPEDFATYYCQQANSFPLTFGGGTKVEIK"
0.0463 nM,1.4e-05 s⁻¹,302000 M⁻¹ s⁻¹,"ZAP122m18 Fab (Fab, V domains shown, Fab; also called clone m18) VH: QVQLQESGPGLVKPSETLSLTCTVSGGSISSDFWGWIRQPPGKGLEWIGYISSRGSTNYNPSLKSRVTISVDTSRNQFSLKLSSVTAADTAVYYCARSAGVTDFDFWGQGTLVTVSS VL: DIQMTQSPSSVSASVGDRVTITCRASQGISSWLAWYQHKPGKAPKLLIYVASSLQSGVPSRFSGSGSGTDFTLTISSLQPEDFATYYCQQANSFPLTFGGGTKVEIK"
0.0842 nM,2.81e-05 s⁻¹,334000 M⁻¹ s⁻¹,"ZAP122m17 Fab (Fab, V domains shown, Fab; also called clone m17) VH: QVQLQESGPGLVKPSETLSLTCTVSGGSISSDFWGWIRQPPGKGLEWIGYISSSGSTNYNPSLKRRVTISVDTSRNQFSLKLSSVTAADTAVYYCARSAGVTDFDFWGQGTLVTVSS VL: DIQMTQSPSSVSASVGDRVTITCRASQGISSWLAWYQHKPGKAPKLLIYVASSLQSGVPSRFSGSGSGTDFTLTISSLQPEDFATYYCQQANSFPLTFGGGTKVEIK"
< 0.0283 nM,< 1e-05 s⁻¹,353000 M⁻¹ s⁻¹,"ZAP122m16 Fab (Fab, V domains shown, Fab) VH: QVQLQESGPGLVKPSETLSLTCTVSGGSISSDFWGWIRQPPGKGLEWIGYISYRGSTNYNPSLKRRVTISVDTSRNQFSLKLSSVTAADTAVYYCARSAGVTDFDFWGQGTLVTVSS VL: DIQMTQSPSSVSASVGDRVTITCRASQGISSWLAWYQHKPGKAPKLLIYVASSLQSGVPSRFSGSGSGTDFTLTISSLQPEDFATYYCQQANSFPLTFGGGTKVEIK"

# The remaining lines, values behind:
Binder,Kd,koff,kon
"ZAP122m1 Fab (Fab, V domains shown, Fab) VH: QVQLQESGPGLVKPSETLSLTCTVSGGSISSDFWGWIRQPPGKGLEWIGYISSRGSTNYNPSLKRRVTISVDTSRNQFSLKLSSVTAADTAVYYCARSAGVTDFDFWGQGTLVTVSS VL: DIQMTQSPSSVSASVGDRVTITCRASQGISSWLAWYYHKPGKAPKLLIYVASSLQSGVPSRFSGSGSGTDFTLTISSLQPEDFATYYCQQANSFPLTFGGGTKVEIK",0.0517 nM,1.91e-05 s⁻¹,369000 M⁻¹ s⁻¹
"ZAP122m13 Fab (Fab, V domains shown, Fab) VH: QVQLQESGPGLVKPSETLSLTCTVSGGSISSDYWGWIRQPPGKGLEWIGYISSRGSTNYNPSLKRRVTISVDTSRNQFSLKLSSVTAADTAVYYCARSAGVTDFDFWGQGTLVTVSS VL: DIQMTQSPSSVSASVGDRVTITCRASQGISSWLAWYQHKPGKAPKLLIYVASSLQSGVPSRFSGSGSGTDFTLTISSLQPEDFATYYCQQANSFPLTFGGGTKVEIK",0.0565 nM,1.78e-05 s⁻¹,316000 M⁻¹ s⁻¹
"ZAP122m5 Fab (Fab, V domains shown, Fab) VH: QVQLQESGPGLVKPSETLSLTCTVSGGSISSDFWGWIRQPPGKGLEWIGYISSRGSTNYNPSLKRRVTISVDTSRNQFSLKLSSVTAADTAVYYCARSAGVTDFDFWGQGTLVTVSS VL: DIQMTQSPSSVSASVGDRVTITCRASQGISSWLAWYQHKPGKAPKLLIYVASSLQSGVPSRFSGSGSGTDFTLTISSLQPEDFATYYCQAANSFPLTFGGGTKVEIK",≤ 0.088 nM,≤ 1e-05 s⁻¹,114000 M⁻¹ s⁻¹
"ZAP122m7 Fab (Fab, V domains shown, Fab) VH: QVQLQESGPGLVKPSETLSLTCTVSGGSISSDFWGWIRQPPGKGLEWIGYISSRGSTNYNPSLKRRVTISVDTSRNQFSLKLSSVTAADTAVYYCARSAGVTDFDFWGQGTLVTVSS VL: DIQMTQSPSSVSASVGDRVTITCRASQGISSWLAWYQHKPGKAPKLLIYVASSLQSGVPSRFSGSGSGTDFTLTISSLQPEDFATYYCQQANAFPLTFGGGTKVEIK",< 0.0258 nM,< 1e-05 s⁻¹,387000 M⁻¹ s⁻¹
"ZAP122m10 Fab (Fab, V domains shown, Fab) VH: QVQLQESGPGLVKPSETLSLTCTVSGGSISSDFWGWIRQPPGKGLEWIGYISSRGSTNYNPSLKRRVTISVDTSRNQFSLKLSSVTAADTAVYYCARSAGVTDFDFWGQGTLVTVSS VL: DIQMTQSPSSVSASVGDRVTITCRASQGISSWLAWYQHKPGKAPKLLIYVASSLQSGVPSRFSGSGSGTDFTLTISSLQPEDFATYYCQQANSFPATFGGGTKVEIK",2.4 nM,0.000613 s⁻¹,256000 M⁻¹ s⁻¹
"ZAP122m3 Fab (Fab, V domains shown, Fab) VH: QVQLQESGPGLVKPSETLSLTCTVSGGSISSDFWGWIRQPPGKGLEWIGYISSRGSTNYNPSLKRRVTISVDTSRNQFSLKLSSVTAADTAVYYCARSAGVTDFDFWGQGTLVTVSS VL: DIQMTQSPSSVSASVGDRVTITCRASQGISSWLAWYQHKPGKAPKLLIYAASSLQSGVPSRFSGSGSGTDFTLTISSLQPEDFATYYCQQANSFPLTFGGGTKVEIK",0.251 nM,9.3e-05 s⁻¹,370000 M⁻¹ s⁻¹
"ZAP122m4 Fab (Fab, V domains shown, Fab) VH: QVQLQESGPGLVKPSETLSLTCTVSGGSISSDFWGWIRQPPGKGLEWIGYISSRGSTNYNPSLKRRVTISVDTSRNQFSLKLSSVTAADTAVYYCARSAGVTDFDFWGQGTLVTVSS VL: DIQMTQSPSSVSASVGDRVTITCRASQGISSWLAWYQHKPGKAPKLLIYVASSLQSGVPSRFSGSGSGTDFTLTISSLQPEDFATYYCAQANSFPLTFGGGTKVEIK",3.49 nM,0.000253 s⁻¹,72400 M⁻¹ s⁻¹
"ZAP122m12 Fab (Fab, V domains shown, Fab) VH: QVQLQESGPGLVKPSETLSLTCTVSGGSISSYFWGWIRQPPGKGLEWIGYISSRGSTNYNPSLKRRVTISVDTSRNQFSLKLSSVTAADTAVYYCARSAGVTDFDFWGQGTLVTVSS VL: DIQMTQSPSSVSASVGDRVTITCRASQGISSWLAWYQHKPGKAPKLLIYVASSLQSGVPSRFSGSGSGTDFTLTISSLQPEDFATYYCQQANSFPLTFGGGTKVEIK",8.83 nM,0.00424 s⁻¹,481000 M⁻¹ s⁻¹
"ZAP122m9 Fab (Fab, V domains shown, Fab) VH: QVQLQESGPGLVKPSETLSLTCTVSGGSISSDFWGWIRQPPGKGLEWIGYISSRGSTNYNPSLKRRVTISVDTSRNQFSLKLSSVTAADTAVYYCARSAGVTDFDFWGQGTLVTVSS VL: DIQMTQSPSSVSASVGDRVTITCRASQGISSWLAWYQHKPGKAPKLLIYVASSLQSGVPSRFSGSGSGTDFTLTISSLQPEDFATYYCQQANSFALTFGGGTKVEIK",0.249 nM,5.93e-05 s⁻¹,238000 M⁻¹ s⁻¹
"ZAP122m11 Fab (Fab, V domains shown, Fab) VH: QVQLQESGPGLVKPSETLSLTCTVSGGSISSDFWGWIRQPPGKGLEWIGYISSRGSTNYNPSLKRRVTISVDTSRNQFSLKLSSVTAADTAVYYCARSAGVTDFDFWGQGTLVTVSS VL: DIQMTQSPSSVSASVGDRVTITCRASQGISSWLAWYQHKPGKAPKLLIYVASSLQSGVPSRFSGSGSGTDFTLTISSLQPEDFATYYCQQANSFPLAFGGGTKVEIK",0.0404 nM,1.46e-05 s⁻¹,363000 M⁻¹ s⁻¹
"ZAP122m6 Fab (Fab, V domains shown, Fab) VH: QVQLQESGPGLVKPSETLSLTCTVSGGSISSDFWGWIRQPPGKGLEWIGYISSRGSTNYNPSLKRRVTISVDTSRNQFSLKLSSVTAADTAVYYCARSAGVTDFDFWGQGTLVTVSS VL: DIQMTQSPSSVSASVGDRVTITCRASQGISSWLAWYQHKPGKAPKLLIYVASSLQSGVPSRFSGSGSGTDFTLTISSLQPEDFATYYCQQAASFPLTFGGGTKVEIK",0.0379 nM,1.43e-05 s⁻¹,379000 M⁻¹ s⁻¹
"ZAP122m8 Fab (Fab, V domains shown, Fab) VH: QVQLQESGPGLVKPSETLSLTCTVSGGSISSDFWGWIRQPPGKGLEWIGYISSRGSTNYNPSLKRRVTISVDTSRNQFSLKLSSVTAADTAVYYCARSAGVTDFDFWGQGTLVTVSS VL: DIQMTQSPSSVSASVGDRVTITCRASQGISSWLAWYQHKPGKAPKLLIYVASSLQSGVPSRFSGSGSGTDFTLTISSLQPEDFATYYCQQANSAPLTFGGGTKVEIK",9.49 nM,0.00251 s⁻¹,264000 M⁻¹ s⁻¹
"ZAP122m2 Fab (Fab, V domains shown, Fab) VH: QVQLQESGPGLVKPSETLSLTCTVSGGSISSDFWGWIRQPPGKGLEWIGYISSRGSTNYNPSLKRRVTISVDTSKNQFSLKLSSVTAADTAVYYCARSAGVTDFDFWGQGTLVTVSS VL: DIQMTQSPSSVSASVGDRVTITCRASQGISSWLAWYQHKPGKAPKLLIYVASSLQSGVPSRFSGSGSGTDFTLTISSLQPEDFATYYCQQANSFPLTFGGGTKVEIK",0.034 nM,1.23e-05 s⁻¹,363000 M⁻¹ s⁻¹
